Measured values from ChEMBL document CHEMBL1147688, “Development of a dual fluorogenic and chromogenic dipeptidyl peptidase IV substrate” (Bioorg Med Chem Lett, 2006).

Substrate: NCC(=O)N1CCC[C@H]1C(=O)NCC(=O)N1CCC[C@H]1C(=O)Nc1cc2oc3cc(=[N+](CCCS(=O)(=O)O)CCCS(=O)(=O)O)ccc-3nc2c2ccccc12
Experiment: Affinity for DPP4
Settings: Homo sapiens

B1: Dipeptidyl peptidase 4 (Homo sapiens), P27487 (protein)
chain: MKTPWKVLLGLLGAAALVTIITVPVVLLNKGTDDATADSRKTYTLTDYLKNTYRLKLYSLRWISDHEYLYKQENNILVFNAEYGNSSVFLENSTFDEFGHSINDYSISPDGQFILLEYNYVKQWRHSYTASYDIYDLNKRQLITEERIPNNTQWVTWSPVGHKLAYVWNNDIYVKIEPNLPSYRITWTGKEDIIYNGITDWVYEEEVFSAYSALWWSPNGTFLAYAQFNDTEVPLIEYSFYSDESLQYPKTVRVPYPKAGAVNPTVKFFVVNTDSLSSVTNATSIQITAPASMLIGDHYLCDVTWATQERISLQWLRRIQNYSVMDICDYDESSGRWNCLVARQHIEMSTTGWVGRFRPSEPHFTLDGNSFYKIISNEEGYRHICYFQIDKKDCTFITKGTWEVIGIEALTSDYLYYISNEYKGMPGGRNLYKIQLSDYTKVTCLSCELNPERCQYYSVSFSKEAKYYQLRCSGPGLPLYTLHSSVNDKGLRVLEDNSALDKMLQNVQMPSKKLDFIILNETKFWYQMILPPHFDKSKKYPLLLDVYAGPCSQKADTVFRLNWATYLASTENIIVASFDGRGSGYQGDKIMHAINRRLGTFEVEDQIEAARQFSKMGFVDNKRIAIWGWSYGGYVTSMVLGSGSGVFKCGIAVAPVSRWEYYDSVYTERYMGLPTPEDNLDHYRNSTVMSRAENFKQVEYLLIHGTADDNVHFQQSAQISKALVDVGVDFQAMWYTDEDHGIASSTAHQHIYTHMSHFIKQCFSLP
  Km: 56 µM
